Assay [1] deals with GCC expressed on T84 cells (UniProt P25092). The experiment in a line: flow cytometry on T84 cells expressing GCC, 300 nm [sic], PE-anti human Fc secondary; Blank 30.7. (In general: In flow cytometry, cells or beads pass a laser one at a time.)
Assay [2] has the same target. Nature of the assay: flow cytometry on T84 cells expressing GCC, 300 nm [sic], PE-anti human Fc secondary; Blank 15.0.

GCC expressed on T84 cells, sequence (P25092 24-1073 limits assumed): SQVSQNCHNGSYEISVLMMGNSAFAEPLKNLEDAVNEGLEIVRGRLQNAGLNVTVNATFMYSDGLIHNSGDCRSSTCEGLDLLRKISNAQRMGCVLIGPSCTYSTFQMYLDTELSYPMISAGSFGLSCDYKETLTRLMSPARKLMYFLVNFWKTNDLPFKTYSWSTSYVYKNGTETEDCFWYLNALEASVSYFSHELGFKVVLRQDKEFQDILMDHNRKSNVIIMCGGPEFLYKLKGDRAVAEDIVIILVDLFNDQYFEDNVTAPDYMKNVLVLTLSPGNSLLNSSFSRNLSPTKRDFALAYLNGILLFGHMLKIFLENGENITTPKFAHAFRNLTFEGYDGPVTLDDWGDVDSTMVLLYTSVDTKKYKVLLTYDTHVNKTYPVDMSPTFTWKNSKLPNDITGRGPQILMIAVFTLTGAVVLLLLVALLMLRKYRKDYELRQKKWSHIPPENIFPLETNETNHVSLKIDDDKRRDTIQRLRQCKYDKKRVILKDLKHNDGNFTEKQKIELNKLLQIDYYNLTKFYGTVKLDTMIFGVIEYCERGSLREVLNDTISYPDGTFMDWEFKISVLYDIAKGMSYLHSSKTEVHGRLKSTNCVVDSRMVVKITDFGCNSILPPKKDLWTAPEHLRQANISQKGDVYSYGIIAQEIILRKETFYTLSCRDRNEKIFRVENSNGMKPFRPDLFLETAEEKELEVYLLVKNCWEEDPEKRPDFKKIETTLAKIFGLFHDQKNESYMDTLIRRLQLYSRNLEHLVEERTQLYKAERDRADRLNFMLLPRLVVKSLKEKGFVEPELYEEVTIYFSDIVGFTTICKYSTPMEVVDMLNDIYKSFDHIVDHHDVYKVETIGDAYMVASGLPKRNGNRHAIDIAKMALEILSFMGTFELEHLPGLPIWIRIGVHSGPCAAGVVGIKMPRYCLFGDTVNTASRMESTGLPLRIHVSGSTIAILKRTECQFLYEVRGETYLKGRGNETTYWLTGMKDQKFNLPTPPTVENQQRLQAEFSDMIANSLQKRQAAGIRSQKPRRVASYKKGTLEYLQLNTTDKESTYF

As to Human IgG1 isotype (antibody), the values for the Geometric mean MFI in assay [1] and in assay [2] were 30.7 and 17.7, respectively.

These data come from patent publication US20260193377A1.
